Measurements as given in patent publication US6713606.

Biological target: T1, purified human Lysn-Plasminogen, P00747
T1 chain: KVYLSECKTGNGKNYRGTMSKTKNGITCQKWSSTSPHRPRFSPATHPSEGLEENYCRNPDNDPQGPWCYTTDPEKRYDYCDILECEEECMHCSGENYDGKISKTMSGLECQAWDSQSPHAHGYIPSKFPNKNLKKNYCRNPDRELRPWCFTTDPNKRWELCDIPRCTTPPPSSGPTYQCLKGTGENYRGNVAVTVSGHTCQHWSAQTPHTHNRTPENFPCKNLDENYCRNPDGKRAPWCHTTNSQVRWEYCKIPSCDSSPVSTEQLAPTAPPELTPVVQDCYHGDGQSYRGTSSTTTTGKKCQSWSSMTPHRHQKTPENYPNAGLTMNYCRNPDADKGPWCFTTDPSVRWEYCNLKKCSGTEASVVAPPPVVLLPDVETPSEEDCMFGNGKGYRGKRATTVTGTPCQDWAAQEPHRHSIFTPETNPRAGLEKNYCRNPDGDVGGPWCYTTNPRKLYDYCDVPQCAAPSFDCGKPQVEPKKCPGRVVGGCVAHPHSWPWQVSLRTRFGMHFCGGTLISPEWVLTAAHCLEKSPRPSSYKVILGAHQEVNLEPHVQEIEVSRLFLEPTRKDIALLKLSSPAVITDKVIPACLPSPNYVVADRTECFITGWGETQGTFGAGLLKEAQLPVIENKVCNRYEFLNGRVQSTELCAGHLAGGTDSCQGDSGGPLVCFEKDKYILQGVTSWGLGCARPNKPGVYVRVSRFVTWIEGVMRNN

B1: thiolated streptokinase (protein)
chain: IAGPEWLLDRPSVNNSQLVVSVAGTVEGTNQDISLKFFEIDLTSRPAHGGKTEQGLSPKSKPFATDSGAMSHKLEKADLLKAIQEQLIANVHSNDDYFEVIDFASDATITDRNGKVYFADKDGSVTLPTQPVQEFLLSGHVRVRPYKEKPIQNQAKSVDVEYTVQFTPLNPDDDFRPGLKDTKLLKTLAIGDTITSQELLAQAQSILNKNHPGYTIYERDSSIVTHDNDIFRTILPMDQEFTYRVKNREQAYRINKKSGLNEEINNTDLISEKYYVLKKGEKPYDPFDRSHLKLFTIKYVDVDTNELLKSEQLLTASERNLDFRDLYDPRDKAKLLYNNLDAFGIMDYTLTGKVEDNHDDTNRIITVYMGKRPEGENASYHLAYDKDRYTEEEREVYSYLRYTGTPIPDNPNDK
- plasmin generation in the plasminogen activation assay (S-2251 substrate units): thiolated SK (1 nM), generated plasmin at a nearly linear of 4225 SU/ml
